Experimental data from doi:10.1101/2022.05.18.492506, “A multi-domain connector links the outer membrane and cell wall in deep-branching bacteria” (bioRxiv, 2022).

B2: SlpA (Deinococcus radiodurans outer membrane protein) (natural protein, UniProt Q9RRB6 23-1167, looked up)
chain: APVSAPQVPALTDVPAGHWAKDAIDRLVSRGVILGYPDGTFRGTQNLTRYEAAIIIARLLDQMRDGETPAGMTAEDMTALQNAIQELAADLAALGVRVSDLEANAVSKDDFARLEARIEEVAAAGGEQGATEALQGQIDDLTARVDEYDALRADVDDNASSIAALNDLTVLLNQDILDLQDRVSAVEAAQADFVQRSDFDALGGRVTTVETRVETVNNSLTGRIAALERNAFSVKPSLTIGYSVSRTSRNFDVDRLFPLNADGTVANNAFTSGGIDTDTGAQRRDFGDFGNASDPVVAGAAGLYGFADGVSYTVYFTDGSTATFDGLNPADYKVPTGKVIDTTKGRNGFGFNNLARYKEGSTDIGISLGFDTSGQFSQVTSGTGGSLFSTAGRLQVNQIDLNFGLVTGLPSDAYVDTNGNGKKDDGEATGRGTYLGSGGTAAILRDPAGNVYRPVFFRFKNATTQFSVGNNPVIVTLGQQQKFYFSDYVFDNNYDGRGDGFTVTVDGSNVPVIGAWKPQIKGVYGSRSGLDGTAEAGYGVYYRGVRAQITPVGTLTAGIHYAQEGRDMFGAAQNTTSTPSDVTTYGADLHGKAFGVELHSEYATSRVRPNTANAAVQTSNAFYARVATRKDNLAFDLNTPAAKFGNDTFGVSLYDLNYRKIDAGYNNVAGISEYGYGSYSRTSAQNIAYNPDTGVTAPFANLDRQAYTDANNDGTSDRNADGTVVATNTKIGQMGFGVKAAANLGPVAIGGYYDTSTGANGDNANRMTEAGGSAKVAYSIFSLRGTYNTLDSNRPQIYRDAAGTQIIGDAKVRRYAVQADVTPGLGLFVGAYYRDVNVNGVRSTTDRGLLGRGYLASSFEPGVGNNAYRTGLRCADNNFGTGTRDIDGVGGVLNPAVNLDQSRTATCFTSYGVEAGHAGDNANALVKDLFFRVGYSRVYVPTTATATTGDFSGSVTYGDARYDRKVGVANVRLAGSFSTTNTQLDSRPAGTRGAVGLIVRTDPLENVPFRPQFNGQVGYYTADNRVAAGNYNANATKYGAGVVLNDFLLPQTKIGVRYDGYMAQNRQYTPFDGDGTQGYFSDANNNRRTNLNGVYVEGAYQDLIFSYGTYTLSQKDLNGVEYGSGINNGQPARGQTFKISYKVNF
notes: SlpA, Deinococcus radiodurans, UniProtKB Q9RRB6; Native protein from the source organism, no tags; Only residues 215-1167 are well resolved in the cryo-EM map; also called SlpA protein complex; SlpA porin; source: purified from D. radiodurans (ATCC BAA816): DDM extraction, HiTrap-Q, Superose 6 Increase

How the values were obtained:
[1] = molecular target: B2; test: cryo-EM structure; single-particle analysis of SlpA purified from D. radiodurans in detergent (20 mM HEPES/NaOH pH 7.5, 150 mM NaCl, 0.02 % DDM; 4.45 mg/mL); C3 symmetry; global resolution 3.25 Å; conditions: both partners purified
[2] = molecular target: the molecule itself; test: as above

B1: uncharacterized protein DR_0644 (natural protein, Deinococcus radiodurans, UniProt Q9RWM2 20-206, looked up)
chain: GPTEGTYTLAPQAVVKPAGPVYAPAGTAKISETLGVTRTTITLTGMAPYAIYVAHYHKMGTAAPMGSAPATNTNMAMSSTDATATTTASTSTTSTDTTVAASTDMTTTVTMAPVTAAPNPCNSDGPAIMESRMIAQASADGKVTLTGIVPTALIRDAAYINVHHGRDFSGALADSGVICTPITMTMR
notes: uncharacterized protein DR_0644, Deinococcus radiodurans; the mature protein, fitted from the mature N-terminus Gly20 to the C-terminus Arg206, with an unstructured loop 82-133; Identified from the map density combined with structural modelling (rigid-body fit of an AlphaFold2 model); also called accessory protein; additional protein density; source: endogenous, D. radiodurans; present with the …
binding result [1]: binds
stoichiometry N [2]: 3

B2
stoichiometry N [2]: 3
